Measured values published in the DeepSol protein solubility set.

assay: soluble on expression in E. coli; label from the status in PepcDB or PDB records

Row | Sequence | soluble on expression in E. coli
1 | MLSIIIPVYNEKGNILELTSRIKSALKNNEYEIVFVDDSTDETPKIIESLALKYNNIRLKHRKGKKGLSSAVIDGFKLARGDVLSVMDGDLQHPPEMLESMLFQMKKDTDIVICSRFVLGGKEEGLNIFRKFASFIARLIGKIFLKPLRKISDPTAGFFMLKRKVIKNRDLRAIGWKILIEILVMGDYKRVVELPYSFKRRKHEKSKFTISVQGQYLKQIVSLFIRSKKYNIKLEHHHHHH | soluble
2 | MNVLICQQPKELVWKQREIPIPGDNEALIKIKSVGICGTDIHAWGGNQPFFSYPRVLGHEICGEIVGLGKNIADLKNGQQVAVIPYVACQQCPACKSGRTNCEKISVIGVHQDGGFSEYLSVPVANILPADGIDPQAAALIEPFAISAHAVRRAAIAPGEQVLVVGAGPIGLGAAAIAKADGAQVVVADTSPARREHVATRLELPLLDPSAEDFDAQLRAQFGGSLAQKVIDATGNQHAMNNTVNLIRHGGTVVFVGLFKGELQFSDPEFHKKETTMMGSRNATPEDFAKVGRLMAEGKITADMMLTHRYPFATLAETYERDVINNRELIKGVITF | not soluble
3 | MARKNLIGISESPLAPEDGERPAVGRPIAGLAPAQRSTGLVGGITRSLSNITQKVERAEELERQLADGHAIVELDPELIDSSFIIDRLGVAPDVQAMLVQQIRDHGQQVPILVRPHPAESGRYQVAYGHRRLAALREIGIKVKAVIRNLNDEQLVISQGQENNARTDLSFIERALFATRLEDRGFSRDTIMSALGVDKAALSKMIAVVRRLPLDIIEAIGAAPGFGRRRWMELADLIDRDDRRPKALHFIETAAFKALESDQRFEKLFALLSLARKPSKAETWIAPDRSRPVRIRETDAETTLAFSKKAAPGFAEFVRQRLEALYLEYQRETGD | not soluble
4 | MNVVLVGTDPNGLTDALEAEGHTVMVADVGNRPGLEEAGIHEADVYLLTEMSQATSIAVAKDLNPDLRVVVYAEGSLPDFASRQTDLVVDPDLLGSDAVAEEL | not soluble
5 | ELVVTQESALTTSPGETVTLTCRSSSGAVTTSNYATWVQEKPDHLFTGLIGGTNKRAPGVPARFSGSLIGDRAALTITGAQTEDEAIYFCALWNSNHLVFGGGTKLEIKRTVAAPSVFIFPPSDEQLKSGTASVVCLLNNFYPREAKVQWKVDNALQSGNSQESVTEQDSKDSTYSLSSTLTLSKADYEKHKVYACEVTHQGLSSPVTKSFNRGEC | soluble
6 | MGSDKIHHHHHHMKIDVEAFRVLSILVEEGSFSKAAERLHKAQSAVSYQVKKLEQHLGVKLFCRDQYRAELTPEGKVILAEGKRLLQYLGNIEHLASRFSEGWEPKLELVVDGSLPMEPIMRALKRVSEHKIPTKIQLNMEFLGGVQHRFERDNADLMLVKDYRTGPNYRPQPLPDINSILVVSRSHPLAKAKELSLFELLQHVELTIEDSSPGKIHSDELQFGGDKVFYLSGFIMKKNALLMGLGFGWMPDFLIQEELASGELQELDFLGGSRYSFTPQLVSTMERPLGRAGRLFTSLILEEFNLYQAQASR | not soluble
7 | MSLVLNDLLICCRQLEHDRATERKKEVEKFKRLIRDPETIKHLDRHSDSKQGKYLNWDAVFRFLQKYIQKETECLRIAKPNVSASTQASRQKKMQEISSLVKYFIKCANRSK | not soluble
8 | MRTLITGASGQLGIELSRLLSERHEVIKVYNSSEIQGGYKLDLTDFPRLEDFIIKKRPDVIINAAAMTDVDKCEIEKEKAYKINAEAVRHIVRAGKVIDSYIVHISTDYVFDGEKGNYKEEDIPNPINYYGLSKLLGETFALQDDSLIIRTSGIFRNKGFPIYVYKTLKEGKTVFAFKGYYSPISARKLASAILELLELRKTGIIHVAGERISRFELALKIKEKFNLPGEVKEVDEVRGWIAKRPYDSSLDSSRARKILSTDFYTLDLDGMVV | soluble
9 | MSEPLDLNQLAQKIKQWGLELGFQQVGITDTDLSESEPKLQAWLDKQYHGEMDWMARHGMLRARPHELLPGTLRVISVRMNYLPANAAFASTLKNPKLGYVSRYALGRDYHKLLRNRLKKLGEMIQQHCVSLNFRPFVDSAPILERPLAEKAGLGWTGKHSLILNREAGSFFFLGELLVDIPLPVDQPVEEGCGKCVACMTICPTGAIVEPYTVDARRCISYLTIELEGALPEELRPLMGNRIYGCDDCQLICPWNRYSQLTTEDDFSPRKPLHAPELIELFAWSEEKFLKVTEGSAIRRIGHLRWLRNIAVALGNAPWDETILTALESRKGEHPLLDEHIAWAIAQQIERRNACIVEVQLPKKQRLVRVIEKGLPRDA | not soluble
10 | MIQQAQFNVQMAEEDRWLTQYPNMEMIVNNKGPKPIFPELNFNITGLEEKSRYVVLLSIQKFDNIRYGFKNGKWGPSKVRHATKKEQEIKYFLHPDGTKLGEELMKETIKFDTVRITNHKKFMDKDNVFFVETMHKYVPVLTVKNITNVESANHSMRMEVAQFFPVTVYNQESIGNWKSKFHKNATFENRLDGGNKRKNTNSREEPSSKRSKNETEIAVLDILQVASQSENYNESTNSGRLQNEISSSIHQFPSTSYQNQYPHAYPTVNTPPIYAQQFPAPFDEKQNQFYPKTDENLAPNCAQDASSLPNFAMNQKASFANQYPYHPYYHQYSQLDHGSPYQYMNNSINSDSSFQSSFSTENSYFDDNGNPIHYPYYPYK | not soluble
11 | MQSLMNNPVTRSNAPCLIVGIGYTTGSVRDLAQRAADYTPPLGDNATADERRQFGQADRFADFIDSELTAFLESRYTLNRNETAVFGHSFGALFGLYSLLSHRCFRRHWLVSPSIWWHNRRILDFMPSENRLDGIDACLNIGALERSSGCKRREERDMAGQAEQMAAELDRRGTAVFFREYPNADHGNVPFYSLTDCVEYLRE | not soluble
12 | MKSIYYLSADDLFQMNTFLIQTYSPAEQIGIKDRNALEMASNQPAQFVFDVDLYPTIEEKAAILMINIATKHCFYNANKRTAVMATDLFLQLNGYDFQLDTQEGVDLLVFIATYRSDFDQLKNDVSKVIRAKLNHTSSHLEHHHHHH | soluble
13 | GPGSMPNPLVRLGKELKEATEHPDPDIHLELYDPTKGSDGSRSSQGAALQPSQQQPGLYTWLAILKGPPDTPFAGGSYRLVLSIPHEYPLVPPKAAFITKVFHPNVEFNTGNVCLDILKKRWSPVWTLSSVCRAILNLLAEPESDSPFNCDAGNLLRAGDMEGYASLVRYYAITDAGAPPFADNEE | not soluble
14 | MTTPAVKMVVAYVTAPSKEVAMTVARTTVTEALAACANVIPEVTSVYKWQGKIEEDQEHVVILKTVESKVEELSARVRSLHPAETPCFFTLAIDKITPDFGGWIVDSTNSSTAKH | soluble
15 | MAHHHHHHMPLVEYVNEEGYRLDGRKEDECRLIKINVGNENIFTDADGFAFYEIGNTKLLSYIQGPTELKKSEEKCSIKCEVFLSPFNVYEKKKKKTKDSVTNEISAYIRNICENIILLDLYKNSEINIFLYIIERDGGVKHAAINTCILALIDAGIAIKYFISACSVLFLQNRILVDGNQLEINSGAPELTMVIELNTHKIVLLEFDAEVPIDIFEAMVRTCMDCCINLGNVMKLTVKENAIKLLCLNNMLNA | not soluble
16 | MTSLTNAVFKRYLAVTPSAHQALKTRIKKKSSSFDKFFPQQSNSRKKQWETLNEDKASWFKRKYAHVHAREQDRAADPYGKKKAHVEKLKEIKNQAKLNQKSHKSKFQNKDIALKLMNDNPIFEYVYGTNSVYAALLNPSRNCHSRLLYHGTIPSKFLQIVDELKVTTELVDKHRLNLLTNYGVHNNIALETKPLQPVEIAYLGDMDTSSAALSIHELGFNNENIPHELPYGTKTDAKKFPLGLYLDEITDPHNIGAIIRSAYFLGVDFIVMSRRNCSPLTPVVSKTSSGALELLPIFYVDKPLEFFTKSQEMGGWTFITSHLANATSEKYTVGKTISMHDLNGLCNELPVVLVVGNESQGVRTNLKMRSDFFVEIPFGGIEKGNRAPEPIVDSLNVSVATALLIDNILTCK | soluble
17 | MGSDKIHHHHHHMKYTFNEEKAFDIVAIGRACIDLNAVEYNRPMEETMTFSKYVGGSPANIAIGSAKLGLKAGFIGKIPDDQHGRFIESYMRKTGVDTTQMIVDQDGHKAGLAFTEILSPEECSILMYRDDVADLYLEPSEVSEDYIANAKMLLVSGTALAKSPSREAVLKAVQYAKKHQVKVVFELDYRPYTWQSSDETAVYYSLVAEQSDIVIGTRDEFDVMENRTGGSNEESVNHLFGHSADLVVIKHGVEGSYAYSKSGEVFRAQAYKTKVLKTFGAGDSYASAFIYGLVSGKDIETALKYGSASASIVVSKHSSSEAMPTAEEIEQLIEAQS | not soluble
18 | MRRQAEAYKAQLAAMVESSDDAIIVKDLNAIITSWNAGAERIFGYQASEITGSSILALIPPERHEEEKGIMSLVKSGNRVDHFETMWWGKGKKPIDVSVTTSAVKDSDGNIVGISQIARDLEHHHHHH | not soluble
19 | MGSDKIHHHHHHSEENESSGTIEMNQLPGTAQSFLSNYFPGQTPEKIERTNTDQENARLLYRVVFPNEVKVEFSENGGWKRLMIPDQKLPGSLDSLWGKIIEYVQQLFPDDPFIGIENACYGDCVLLSSGKKIAFYYDGTCIGYEMDIKDESGVPQPVRDFVATYFPDGVFQAVVEHIPNENVTAGYSFWLENGFKCVLNDRGQWTEVNGGTELLPVSILETLPAKVTEQLYRDYPAAQVTYIRLEGTCYTIQVSKTVYVTIDPESKPIVVPVMQAQALAEEYFGKLRSISISHPLHTDVLNFKVCLPNGFNMLVNEDASEWLNIDGNGFAFPEKLVASLPEKITEYISAHSNSEITRVDRSVAASFLVELTNGDGLMFDSQGGFLGKEKIELSISEKTYRYMRHQFPDDLNMYFSSYSIEGWIYKLGDGSQVRFDRDGNFVEMIAAAK | not soluble
20 | MAHHHHHHMRGQSSFSSIGEKPNALRDANDVTPMDTRHLHATCAAEEITHNTGANKKRQRGCRTPLMNAGDGSSIHSATSHQSSQAAHRTADAPSDISNRPTQSSGRAMELIRQRRSTVVRRITDIPALGQSHKEGERCGLINVGAVNVEAENAPSEQFSTFFSFFFFCRTHEQPMNEESCAALLVGILEVAPSTRPRHTRMLRSTLEMNRTPLEMVILGLQKIASRWETKQARPLTKEWLNQPIRSRTDWKERVVFRLVWITASRLFEIVALTPKNVTLEPNGTLILYWPVAPKTARADPHCASRFVGMRGQDAFDIIKLCMTL | not soluble
21 | MEGMDHGSHSMPMGASSDAPAQSRTPIPPVTDADRAAVYTSHSGHQVHDSAINSYFVADKLEWQDANDGSALAWDLSGWIGGDIDRLLLRSEGERTNGKTEEAEVQALWGHAVSSSWDVVAGARQDFKPGAPQTWAAFGLQGQAISDLDVEATAFIGDAGQTAARLEADYDLLLTNDLILQPTGELNFYGKNDPQRGNGSGLSTSEFGLRLRYEITPQFAPYVGVTWNRSYGKTADYAREDDEDVAQARLVVGLRLWFLEHHHHHH | not soluble
22 | MSVIAITGSASGIGAALKELLARAGHTVIGIDRGQADIEADLSTPGGRETAVAAVLDRCGGVLDGLVCCAGVGVTAANSGLVVAVNYFGVSALLDGLAEALSRGQQPAAVIVGSIAATQPGAAELPMVEAMLAGDEARAIELAEQQGQTHLAYAGSKYAVTCLARRNVVDWAGRGVRLNVVAPGAVETPLLQASKADPRYGESTRRFVAPLGRGSEPREVAEAIAFLLGPQASFIHGSVLFVDGGMDALMRAKTF | soluble
23 | MAHHHHHHMVWFSAPDNSEFLGDPLPRKARQPKVHLATEVSVEASVPWEDVSSWECGSQTSRNSSRSSTSDNAANGHVANINKFHDRMELIRRLNKRRRNNSTCRESGRTEQWTCQPLYVGVSTFPEMKEMSPKSVGGENVPFWNGAVVHDSPLMTDRSGSEVDKKPLKTRKCAWNLTYVRKNDWPEAHQMHEGDAII | not soluble
